B1: SC34.67 (antibody, mouse IgG2a, V domains shown)
VH: QVQLQQSGAELARPGASVRLSCKASGYTFTSYGINWVKQRTGQGLEWIGEIYPGSGDSYYNKTFKGKAILTTDKSSSTAYMQLSSLTPEDSAVYFCARVHDYGSWFPYWGPGALVTVSA
VL: DMVMSQSPSSLAVSVGEKVALSCKSSQSLLHSRDQKNYLAWYQQKPGQSPKLLIHWASTRESGVPARFTGSGSGTDFTLTISSVKAEDLAVYYCQQSYRYPLTFGAGTKLELK
B2: SC34.63 (antibody, mouse IgG1)
light chain: DIVMSQSPSSLAVSVGEKVTMSCKSSQSLLYSKYQKNYLAWYQQKPGQSPKLLIYWASTRESGVPDRFTGSESGTDFTLTISSVKAEDLAVYYCQQYYRYPLTVGAGTKLELK
heavy chain: QVQLQQSGVELARPGASVKLSCKASGYTFTSYGIDWVKQRTGQGLEWIGETYPGRGDTYYNENFKGKATLTTDKSSSTAFLQLSSLTSEDSAVYFCARVHDYGSWFPYWGQGTLVTVSA
B3: SC34.76 (antibody, mouse IgG1, V domains shown)
VH: QVQLQQSGAELARPGASVKLSCKTSEYTFTSYAINWVKQRTGQGLEWIGEVYPGSGNTYYNEKFKGKAILTTDKSSSTGYMQLSNLTSEDSAVYFCARVHDYGSWFPYWGQGTLVTVSA
VL: B2 light chain with K18R, S22N, L30F, K33R, E72G, V104F
B4: SC34.91 (antibody, mouse IgG1, V domains shown)
VH: B2 heavy chain with V9A, T30R, G33A, D35S, T51I, R55S, F80Y, L81M, Y102N
VL: B2 light chain with K33T, Y42F, E72G, V104F
B5: SC34.7 (antibody, mouse IgG1, V domains shown)
VH: QVQVQQSGAELARPGASVKLSCKASGYTFTSYGINWVKQRTGQGLEWIGEIYPGSGNAYYNEKFKVKAKLTTDNSSRTAYMQLINLTSEDSAVYFCARVHDYGSWFPYWGQGTLVTVSA
VL: B2 light chain with K33R, E72G, Q95H, V104F
notes: also called SC34.07
B6: SC34.24 (antibody, mouse IgG1, V domains shown)
VH: B3 VH with A9P, T24A, N35T, T41A, V51I, N57D, I69T, G79A, N85S
VL: B2 light chain with S22N, K33R, E72G, V104F
B7: SC34.27 (antibody, mouse IgG1, V domains shown)
VH: B2 heavy chain with V9A, T30R, D35N, T51I, T58V, F80Y, L81M
VL: B2 light chain with K33R, Y34N, E72G, S82N, Q95H, V104F
B8: SC34.20 (antibody, mouse IgG1, V domains shown)
VH: QVQLQQSGSELARPGASVKLSCKASGYTFRSYAISWVRQRTGQGLEWIGEIYPESGNTDYNAQFKGKATLTTDKSSSTAYMQLSSLTSEASAVYFCARVHDYGSWFPYWGQGTLVTVSA
VL: B2 light chain with A12T, K33T, Y42F, E72G, V104F
B9: SC34.83 (antibody, mouse IgG2a, V domains shown)
VH: QVQLQQSGAELVKPGASVKISCKASGYAFSHSWMNWVKQRPGKGLEWIGRIYPGDGDINYNGKFKGKATLTADKSSSTAYMQLSSLTSEDSAVYFCARRGPSYNNYCFDYWGQGTTLTVSS
VL: QIVLIQSPAIMSASPGENVTMTCSASSSVSYMHWYQQKSGTSPKRWIYDTSKLASGVPARFSGSGSGTSYSLTISSMEAEDAATYYCQQWNSYPPTFGAGTKLELK
B10: SC34.4 (antibody, mouse IgG2b, V domains shown)
VH: B3 VH with T24A, E26G, A33G, V51I, T58I, S77N, G79A, N85S, G110A
VL: DIVMSQSPSSLTVSVGEKVTMSCKSSQSLLYSRNQKNYLAWYQQKPGQSPKLLIYWASTRDSGVPDRFTGTGSGTDFSLTISSVKTEDLAVYYCHQHYRYPLTFGAGTKLELK
notes: also called SC34.04
B11: SC34.95 (antibody, mouse IgG1)
light chain: B2 light chain with M4L, Y31N, K33R, Y34D, Q35R, Y42C, L52V, L53M, E72G, R99S
heavy chain: QVQVKQSGAELARPGASVKLSCKASGYTFTSYAINWLKQRTGQGLEWIGEIYPGSGNTYYNESFKNKATLTTDKSSTTAYMQLNSLTSEDSAVYFCARVHDYGSWFPYWGQGTLVTVSA

Substitutions are numbered along the chain they refer to. Where “and” joins values, the source holds several entries; their conditions need not be identical. Identical values can stand only once. Where only a bound is given, the exact number is not on record here.

The target of one assay is T1, rat DPEP3 ECD with histidine tag (rat, UniProt Q5U2X4 36-459, limits assumed).
T1 construct: also called rDPEP3-His; ratDPEP3-His; not shown: histidine tag
T1 sequence: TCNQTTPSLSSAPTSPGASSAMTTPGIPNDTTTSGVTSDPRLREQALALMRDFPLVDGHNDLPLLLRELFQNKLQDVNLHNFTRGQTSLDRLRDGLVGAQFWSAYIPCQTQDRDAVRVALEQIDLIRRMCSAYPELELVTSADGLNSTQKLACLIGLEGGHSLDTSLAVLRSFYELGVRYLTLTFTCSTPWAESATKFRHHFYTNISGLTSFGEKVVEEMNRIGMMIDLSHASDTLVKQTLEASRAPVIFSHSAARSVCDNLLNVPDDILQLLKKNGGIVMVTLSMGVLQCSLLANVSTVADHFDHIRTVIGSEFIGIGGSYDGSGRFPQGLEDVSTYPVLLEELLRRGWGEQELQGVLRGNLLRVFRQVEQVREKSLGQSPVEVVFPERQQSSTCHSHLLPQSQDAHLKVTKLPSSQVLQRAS
The assay is described as follows: ELISA, coated antigen. Here is the method:
(§1) The anti-DPEP3 antibodies were screened by ELISA for cross-reactivity with mouse, rat and cynomolgus DPEP3 and for cross reactivity to hDPEP2, the closest DPEP3 family member. ELISA was conducted as follows. Plates were coated with purified mouse, rat or cynomolgus DPEP3-His or hDPEP2-His at 0.3 μg/mL in 0.2 M carbonate-bicarbonate buffer, pH 9.4 overnight at 4° C. The protein solution was removed and the wells were blocked with 1% (w/v) BSA in PBS (PBSA), 100 μL/well for 1 hour at 37° C. Anti-DPEP3 antibody or a mouse isotype control antibody was then added at 1 μg/mL in 50 μL PBSA for 1 hour at room temperature. After washing with water, 50 μL/well HRP-labeled goat anti-mouse IgG antibody diluted 1:10,000 in PBSA was added for 30 min at room temperature. The plates were washed and developed by the addition of 40 μL/well of the TMB substrate solution (Thermo Scientific) at room temperature. An equal volume of 0.2 M H₂SO₄ was added to stop substrate development. The samples were then analyzed by spectrophotometer at OD 450. […] The cross reactivity results for exemplary DPEP3-specific antibodies can be seen in FIG. 4.
In the case of B1, the binding result is given as “no binding (tested: 1 ug/mL)”.

For B2, the binding result is listed as “no binding (tested: 1 ug/mL)”.

For B3, the binding result was “no binding (tested: 1 ug/mL)”.

B4: the binding result is reported as “no binding (tested: 1 ug/mL)”.

With B5, the binding result is given as “no binding (tested: 1 ug/mL)”.

For the molecule B6, the binding result was “no binding (tested: 1 ug/mL)”.

Consider B7, for which the binding result is recorded as “no binding (tested: 1 ug/mL)”.

For the molecule B8, the binding result is recorded as “no binding (tested: 1 ug/mL)”.

The next assay deals with T2, hDPEP2 ECD with histidine tag (human, UniProt Q9H4A9 33-463).
T2 construct: also called hDPEP2-His; not shown: histidine tag
T2 sequence (Q9H4A9 33-463): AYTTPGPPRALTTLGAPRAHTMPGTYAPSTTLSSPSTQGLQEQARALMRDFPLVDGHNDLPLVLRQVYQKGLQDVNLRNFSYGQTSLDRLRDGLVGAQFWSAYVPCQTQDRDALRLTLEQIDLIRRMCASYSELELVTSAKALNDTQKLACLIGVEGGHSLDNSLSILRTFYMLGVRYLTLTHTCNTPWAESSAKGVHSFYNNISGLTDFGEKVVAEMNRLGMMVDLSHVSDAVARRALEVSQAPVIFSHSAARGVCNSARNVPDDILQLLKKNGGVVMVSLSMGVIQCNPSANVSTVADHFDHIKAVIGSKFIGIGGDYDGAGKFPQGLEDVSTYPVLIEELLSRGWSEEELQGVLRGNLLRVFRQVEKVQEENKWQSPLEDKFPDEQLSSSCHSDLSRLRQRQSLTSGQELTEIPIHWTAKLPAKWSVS
Put plainly: ELISA, coated antigen. Here is the method: as §1
(In an ELISA, binding on a coated surface is turned into a signal by an enzyme label.)
Turning to B9, the binding result was “no binding (tested: 1 ug/mL)”.

Take B1: the binding result was “no binding (tested: 1 ug/mL)”.

Consider B10, for which the binding result is given as “no binding (tested: 1 ug/mL)”.

For B2, the binding result is recorded as “no binding (tested: 1 ug/mL)”.

Turning to B3, the binding result was “no binding (tested: 1 ug/mL)”.

Turning to B11, the binding result was “no binding (tested: 1 ug/mL)”.

As to B4, the binding result was “no binding (tested: 1 ug/mL)”.

Take B5: the binding result is listed as “no binding (tested: 1 ug/mL)”.

As to B6, the binding result is given as “no binding (tested: 1 ug/mL)”.

Turning to B7, the binding result was “no binding (tested: 1 ug/mL)”.

For the molecule B8, the binding result is “no binding (tested: 1 ug/mL)”.

In the next assay the target is T3, mDPEP3 (limits assumed).
T3 construct: also called mouse DPEP3-His; mouse DPEP3 ECD with histidine tag
T3 single chain: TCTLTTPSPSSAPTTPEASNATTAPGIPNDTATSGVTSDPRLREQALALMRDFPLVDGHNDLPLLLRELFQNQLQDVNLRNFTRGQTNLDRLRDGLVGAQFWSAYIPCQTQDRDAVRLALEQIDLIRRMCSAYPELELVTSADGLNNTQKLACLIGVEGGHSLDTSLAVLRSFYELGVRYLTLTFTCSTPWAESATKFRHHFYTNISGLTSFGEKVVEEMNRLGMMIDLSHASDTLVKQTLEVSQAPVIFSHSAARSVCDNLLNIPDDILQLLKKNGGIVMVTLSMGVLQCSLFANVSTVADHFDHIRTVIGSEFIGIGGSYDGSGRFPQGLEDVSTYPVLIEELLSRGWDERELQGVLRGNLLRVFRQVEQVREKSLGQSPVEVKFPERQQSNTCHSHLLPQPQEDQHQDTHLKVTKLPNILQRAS
Put plainly: ELISA, coated antigen. Here is the method:
as §1
With B1, the binding result was “no binding (tested: 1 ug/mL)”.

On to B10, for which the binding result was “no binding (tested: 1 ug/mL)”.

As for B2, the binding result is recorded as “no binding (tested: 1 ug/mL)”.

On to B3, for which the binding result is reported as “no binding (tested: 1 ug/mL)”.

For B11, the binding result is reported as “no binding (tested: 1 ug/mL)”.

For the molecule B4, the binding result was “no binding (tested: 1 ug/mL)”.

B5: the binding result was “no binding (tested: 1 ug/mL)”.

Regarding B6, the binding result was “no binding (tested: 1 ug/mL)”.

Turning to B7, the binding result is “no binding (tested: 1 ug/mL)”.

Turning to B8, the binding result is listed as “no binding (tested: 1 ug/mL)”.

In a further assay the target is T4, hDPEP3-ECD-His (human, UniProt Q9H4B8 36-463).
T4 construct: also called hDPEP3-His; monomeric hDPEP3-His antigen; not shown: histidine tag
T4 sequence: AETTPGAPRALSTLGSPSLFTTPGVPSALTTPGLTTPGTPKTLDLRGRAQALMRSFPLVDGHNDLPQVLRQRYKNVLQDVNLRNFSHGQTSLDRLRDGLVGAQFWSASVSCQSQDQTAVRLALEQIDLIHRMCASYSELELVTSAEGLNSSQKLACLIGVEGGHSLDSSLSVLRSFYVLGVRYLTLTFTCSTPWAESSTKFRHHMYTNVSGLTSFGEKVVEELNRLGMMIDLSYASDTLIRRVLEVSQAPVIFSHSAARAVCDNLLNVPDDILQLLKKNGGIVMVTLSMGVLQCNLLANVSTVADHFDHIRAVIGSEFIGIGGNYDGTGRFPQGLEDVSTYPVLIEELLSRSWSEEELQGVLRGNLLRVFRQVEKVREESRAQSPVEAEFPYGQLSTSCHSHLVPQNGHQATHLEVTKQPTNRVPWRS
The assay is described as follows: BLI ForteBio RED, 200 nM hDPEP3-His, estimated grade. Here is the method: The affinity of the antibodies for hDPEP3-His was qualitatively determined from kinetics curves generated with a ForteBio RED as follows. Anti-DPEP3 antibodies were immobilized onto anti-mouse Fc capture biosensors with a contact time of 3 mins. and a flow rate of 1000 rpm. The captured antibody loading from baseline was constant at 0.3-1 units. Following antibody capture and 30 second baseline, the biosensors were dipped into a 200 nM solution of hDPEP3-His for a 4 min. association phase followed by a 3 min. dissociation phase at a shaking rate of 1000 rpm. The biosensors were regenerated by dipping into 10 mM glycine, pH 1.7 following each cycle. The data was processed by subtracting a control mouse IgG surface response from the specific antibody response and data was truncated to the association and dissociation phase. The association and dissociation curves were used to qualitatively estimate the affinities of selected antibodies. […] A designation of “ND” means that the estimated KD was not determined.
One may read the Kd as the concentration at which binding is half-saturated. Take B9: the Kd is > 10 nM.

On to B1, for which the Kd was < 5 nM.

As to B10, the Kd is ≥ 5 nM and ≤ 10 nM.

For the molecule B2, the Kd is < 5 nM.

As for B3, the dissociation constant Kd is < 5 nM.

In the case of B11, the Kd was < 5 nM.

In the case of B4, the Kd was < 5 nM.

As for B5, the Kd was ≥ 5 nM and ≤ 10 nM.

Regarding B6, the Kd is < 5 nM.

For B7, the Kd is < 5 nM.

With B8, the Kd was ≥ 5 nM and ≤ 10 nM.

These data come from patent US20170029530A1 (AbbVie / Abbott, published 2017).
